Measurements: patent US20130288389A1

Molecular target: human rPrP^C 23-231 (human) (UniProt P04156)
Assay: cell-based or functional assay

With “human sporadic CJD (sCJD) brain homogenate PrP-res (from UniProt P04156 23-230)” the eQuIC seeded conversion of substrate: lowest PrP-res amount detected was 1 fg.
